According to PMC10251311:

Experiments:
Assay in all cases: MST
[1] = target: RSV postfusion F (Respiratory syncytial virus) (UniProt P03420+P03420); settings: T in primer region unmodified, MST: PBS, 0.05% Tween 20, 25 C, 10-20 nM Cy5-aptamer, AlphaScreen: PBS with mucin 10 mg/L, BSA 1 mg/ml, salmon sperm DNA 1 mg/L, RT, 10 nM biotin-aptamer …
[2] = tested on: Influenza H1 hemagglutinin S106 DS26r (Influenza virus H1); settings: every U is TAdU (5-[(3-indolyl)propionamide-N-allyl]-2'-deoxyuridine); all sugars deoxyribose; T in primer region unmodified; MST: PBS, 0.05% Tween 20, 25 C, 10-20 nM Cy5-aptamer; AlphaScreen: PBS with mucin 10 mg/L, BSA 1 mg/ml, salmon sperm DNA 1 mg/L, RT, 10 nM biotin-aptamer …
[3] = target: hMPV prefusion F v3B (Human metapneumovirus) (UniProt Q6WB98); settings: every U is TAdU (5-[(3-indolyl)propionamide-N-allyl]-2'-deoxyuridine); all sugars deoxyribose; T in primer region unmodified; MST: PBS, 0.05% Tween 20, 25 C, 10-20 nM Cy5-aptamer; AlphaScreen: PBS with mucin 10 mg/L, BSA 1 mg/ml, salmon sperm DNA 1 mg/L, RT, 10 nM biotin-aptamer …
Sequence of hMPV prefusion F v3B (Human metapneumovirus) (Q6WB98 whole entry, the tested form may be a part): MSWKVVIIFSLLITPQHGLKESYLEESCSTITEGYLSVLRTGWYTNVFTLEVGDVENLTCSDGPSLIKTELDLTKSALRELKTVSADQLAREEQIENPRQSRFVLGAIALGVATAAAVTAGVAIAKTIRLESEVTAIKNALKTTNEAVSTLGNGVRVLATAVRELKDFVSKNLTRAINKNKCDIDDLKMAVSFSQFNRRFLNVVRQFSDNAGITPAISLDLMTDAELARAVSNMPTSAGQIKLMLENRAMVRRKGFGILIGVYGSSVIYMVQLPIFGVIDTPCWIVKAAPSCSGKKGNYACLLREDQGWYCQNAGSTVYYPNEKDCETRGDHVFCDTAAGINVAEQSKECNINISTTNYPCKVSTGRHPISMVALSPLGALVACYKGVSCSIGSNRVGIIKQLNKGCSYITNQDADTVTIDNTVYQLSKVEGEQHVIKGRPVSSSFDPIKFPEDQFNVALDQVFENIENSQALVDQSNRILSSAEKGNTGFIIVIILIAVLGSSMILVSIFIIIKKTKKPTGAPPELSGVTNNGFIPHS

| Sequence | Kd ([1]; every U is TAdU (deoxy)) | Kd [2] | Kd ([1]; every U is TAdU (5-[(3-indolyl)propionamide-N-allyl]-2'-deoxyuridine), all sugars deoxyribose) | Kd [3] |
| --- | --- | --- | --- | --- |
| GATCGAGCCAGCTACGTCAUGGUUGGGAGGUGUUGUGGGGAUGGUGGGUGGGAGUAUGACAUGCCUCAGCGACUA [D4] | 2760 nM | – | – | – |
| GATCGAGCCAGCTACGTCAGUUAUGGUAUAGGUUGGUGGUGGGGGGGGGUUGUGGUGGGACAUGCCUCAGCGACUA [B1] | 3990 nM | – | – | – |
| GATCGAGCCAGCTACGTCAUGCUGUCAAUGGGUGGGUGUGGUGGGGUUGAUGUUAUGUGACAUGCCUCAGCGACUA [A2] | – | 14.7 µM | 994 nM | 6.95 µM |
